# Assay: soluble on expression in E. coli; label from the status in PepcDB or PDB records
row,Sequence,soluble on expression in E. coli
1,MGSDKIHHHHHHMPQRLYTYPPLLRGRLLQRYKRFFADIELDSGETITAHCPNTGPMTGVCQMGNLVYVSKSDNPKRKLAYTWELIEVTDNEPTWVGVNTGLPNRVVQALLEQRCLPVLGDYGEVQREVPYGENSRIDFRLTGDRPIYVEVKNTTWTAGRLALFPDTVTTRGQKHLRELTAILLEARAVMLYFINRGDCTAFAPGDSADPTYGQLLRTGIAAGLEVYPCQFQISPEGIDFLGVAPLQL,not soluble
2,SLIDNPHAQDCWPNQGHMDVQGLTVKYTEAGRSVLQDLSFTVEGGQSVGVLGRTGSGKSTLLSALLRLASTDGEISIDGVSWNSVTLETWRKAFGVVPQKIFILTGTFRMNLDPHARYSDEELWRVAEEVGLKSVIEQFPDKLDFQLEDGGYVLSNGHKQLMCLARSILSKARILLLDEPSAFLDPITLQVLRKTLKQSFSNCTVILSEHRVEPLLECDSFLMIEGSSMKRYDSIQKLLNETSDLKQAMSAAE,soluble
3,MAHHHHHHMTSGYSSYAGASGSGHERFTRILVVGEASVGKTLLIRRLCDHIFGDTSITSTDEGSAPESPYQSQSAVADDDLGPEWGPTVGIAVDALKRSTTVLEDTVTMPNLAMSTPYDTAAVARYTAPSCSLHSGENGNYPHCSVYDTPCSTSGYGRSNSVLQYRGQGFVGSNTSFALLHQLTSASPPRRQTVLQTVEFHELGGTHGYRDVARLLLRNIHYDGVMFVYHRRSLTSTLYLKEWYRWIRSVFSASPDVGSHYGAEAKKPVKCSKKMPRFMLVGTQLPGDELPAAAAGLTKAAAETLHMASGAISDETLLDGNLEVKLRALQSPQTLTQRRGVRHALSKVFRRLAWPYHMWWCVSHPFFLLSKQYQEELGPRSRLGACGSRVVERFVWLFYQAEQALLYVMAVILFGPYQEAVVLGHSRPKQTLEEMLKDELCVSQAHVCRLESNISLQSSLDDMVAFFDILLRQDAPDEGR,not soluble
4,MGSDKIHHHHHHMPAIAFIDISGSPFQAGQALGRFGASAVRDHLLHTDAWRSVMRWRGTEQAALMAAQVQARFPRIWDELKGLADGLGLPLEDTFLWNCRGDVWAMSPDGCTTVQVPGAHRRRISHNEDGDPGFSGHCAIAQCHIAGSPGFASFVYPGSLPGHTFAATELGLAMTVNNLRYRNTTAGVPRMVLTRAVLDAPDLDKALAVLRDNPHAGGFHLTLGHCRSTALLSVEFSAYGCSVLDITQTSMHANHAIHPQMRDHPQIVTGSSGHRQMRGDTVIADAARDGREIDPLELLADTAHPSFPIYRDDPHDSDGENTQATADMRVGPTCIEWEVYEQPGTAPRYRMINGHTREEDATDAGARPDVQSRH,not soluble
5,MTLSEEVASLQRAAHDLMYLGMDGSPIYSDDLSRRNNEVYRLTTTLYNSGVQGSTVEEQASVCLALLMGYNASFIDHGEKREHVQKILDRCWDILDTLPASLLKLRLLTACYGEVFDEPLADEARAIIASWDSVSLTTEQQEAINEFQTVVDNPYPWEYVEE,not soluble
6,MILTTSRKPSQRTRSFARDLERTLNIPYVQRGKLSLKEIFEIDKHVLLIGEFKANPGTLVVYDVENEKRLSSFISVKLQREICGEKIYNDDGIRIKISRELKDNEEFQKYYEIYDEFLFQHLNINEDSDITLRLEKDPKYLFAIQFYKGRVKIGPLIRIKSIKLFDSLLLEHHHHHH,soluble
7,MNEFETLLNSVEDVKVRDVVKGEILSVENGQATVAIVGTGVEGVLTLREITNDKDADINTFVKPGDVLDLLVIKQIVGKEAEGANVYLLSLKRLEARKAWTQLEGKEGEIVTVKVTKDVKGGLSVDYNGVRGFIPASMIDTYFVKDTKKFVGEEIEAKIIEVNASENRFILSRRAVVEAEAIEMRKEAFAQLQEGDIVEGTVSRVTNFGAFVDLGGIDGLVHVSELSHSRIKRPSDAVKPGDVVNVKILKLDPEAGRLSLSLKATQPGPWEQVEEKAPVGSTVEGTVKRLTDFGAFVELYPGVEGLVHVSQISWERVENPKDVLKVGQVVNVKVLDVKPAEERISLSIKALEEAPARPARNNDNDGEKRDRKPRAPRKAAKPSYDLPETQEGFSLADFLGEDFDINDLLEHHHHHH,soluble
8,MSLNSYVLGFKEIDKTKISMVGGKGANLGELSRVAGILIPEGFCVTTEAYKKIIEKSKEFNELLDELSCLRLEDGEKVYEVSKKIRMVIERISIPKDIVEEIDVYLTRLGEKDAYAVRSSATAEDLPTASFAGQQDTYLNIIGKKSILEHISKCWASLFTDRAVIYRLQNGFDHRKVYISVVIQKMIFPKAAGILFTADPVNSNRKVLSIDASFGLGEALVSGLVNADMYKVLSGKITDKKVSKKKLAIYASKDGGTKAQELEIEKQNKQVLTEEQILQLEHIGRSIEEHFSFPQDIEWCLNQDTFYILQSRPITTLYPIPKANDEENHVYISVGHQQMMTDPLKPLGMSLYELTSFGNRFKAGGRLFFDVTQMLASKDSRKMLLNNMEQHDPLMKDALVTIIERDFIKALPSDNGNQSKSNKGVSAGESENQIENNPTIVSDLINKNQASIEELKENIKTKSGLELIDFIRTDVEELKKILSDPQSSAVFMTAINASHWINEKMRDWLGEKNAADILSQSVPNNITSKMGLELLEIADVIRPYPEIIDYLQHVKDDNFLEEIVKFNGGHEVKNAILSYLSKYGMRCSGEIDITRTRLSEKPITLVPMILNNIKNFETGAANIKFQQGKQKALEKEQELLERLKQLPDGEQKAKETKRMIKLIRNFIGYREYPKYGMVNRYFIYKQALMKEAEKLANIGAIHEKEDIYYLTFEELREVIRTKKVDYSIINKRKNEHKLYEKLIPPRVITSDGEIVEGEYKRENVPEGAIIGLSVSSGVIEGRARVILNMEDANLEAGDILVTSFTDPSWTPLFVSIKGLVTEVGGLMTHGAVIAREYGLPAVIGVENATKLIKDGQQIRVNGTEGYVEILEGHHHHHH,soluble
9,MSKIEIYNREEALLLIEKLNNSNIEIPILLMLTLGLRLGEATGLRWTDVDLNIGSVSVSQTLIYANNKIEFKEPKTSKSRRTLSAPDELIEKLKIEKLRQNKLKLQGILKNENNLVCLNKDYNPFLPATLRKSFHRFIKKNNLKNIRMHDLRHTNASLLLLGGTNMKVVSERLGHTDIQITMNRYSHVLEEMDKKASDNLSKILEHHHHHH,not soluble
10,SMANHLVKPDSRNCKRARELEPQVSDSPQVSSLGKSESSLSEASGLFYKEEALEKDLSDMSKEINLMLSTYAKILSERAAVDASYIDEIDGLFKEANIIENFLVQKREFLKQRFTVITNTLHK,soluble
11,MTRLLYYEDAYLKEAKAKVLEVKDNALLLDQTIFYPTGGGQPHDRGWINGVEVLDVYKDEEGNVWHVVKELEKFKPGDEVELKLDWEYRYKLMRIHSALHLLENVLDQILGKGNWEVVGSGMTHEKGRLDVGYPENLNAYKEKIIELFNRYVDEGGEIKIWWEGEKRYTQIRDFDPIPCGGTHVKDIREIGHIKKLKRSSIGRGKQRLEIWLEDLEHHHHHH,not soluble
12,MSLTDKMQSLALAPVGNLDSYIRAANAWPMLSADEERALAEKLHYHGDLEAAKTLILSHLRFVVHIARNYAGYGLPQADLIQEGNIGLMKAVRRFNPEVGVRLVSFAVHWIKAEIHEYVLRNWRIVKVATTKAQRKLFFNLRKTKQRLGWFNQDEVEMVARELGVTSKDVREMESRMAAQDMTFDLSSDDDSDSQPMAPVLYLQDKSSNFADGIEDDNWEEQAANRLTDAMHGLDERSQDIIRARWLDEDNKSTLQELADRYGVSAERVRQLEKNAMKKLRAAIEAEGHHHHHH,soluble
13,QFLFSMSTGPFICTVKDNQVFVANLPWTMLEGDDIQVGKEFAARVEDCTNVKHDMAPTCTKPPPFCGPQDMKMFNFVGCSVLGNKLFIDQKYVRDLTAKDHAEVQTFREKIAAFEEQQENQPPSSGMPHGAVPAGGLSPPPPPSFCTVQ,soluble
14,MDGCMPGISATTLLKQQNIPESFKFYFKRRFAPLVTDGPHLNELVRPRLKIAIVTETWPPEINGVAMSLLQLCKGLQEQGHKILLVRPQQKRECYEFSPHKECLVHAQRIPKYPELQFGWPQYLKVAKAFEDFTPDVVHVVTEGPLGLTALYAARAKQIPVSSGFHSPFQDFSRFFDLAFLLKPIQGYLRWFHNHTQITCVPSQDTEKALRAFGVTCPLSIVGRGVDPKFFSPDFRNEALRERWKAASDTVVMLYVGRLSPEKEIHILIQNYAAMRRVEPRNVKLVIVGSGPDRARLEALDETQEVIFMGSLSGKNLAEAYASADVFVFASQVETFGNVVLEAMASGLPVVAYDYACAHQYIQHGVTGWLSPLGQPATFIQAMRQLSGVKQLRQMGQRARQCVEHDGWQYPVQQMEQALYRVVKEPYMKLEHHHHHH,not soluble

# Reference: the DeepSol protein solubility set
